{
  "source": "paper PMC6597557",
  "about": "“A split fluorescent reporter with rapid and reversible complementation” (Nature Communications, 2019)",
  "binders": {"B1": {"name": "NFAST (fragment 1-114 of FAST, Fluorescence-Activating and absorption-Shifting Tag) (domain or fragment)", "chain": "MEHVAFGSEDIENTLAKMDDGQLDGLAFGAIQLDGDGNILQYNAAEGDITGRDPKQVIGKNFFKDVAPGTDSPEFYGKFKEGVASGNLNTMFEWMIPTSRGPTKVKVHMKKALS", "notes": "Cloned into pET28a by NheI and XhoI; also called Histag-NFAST; pAG209; source: E. coli Rosetta (DE3) pLysS, purified (Ni-NTA, PD-10 desalting into PBS)"}, "B2": {"name": "CFAST11 (fragment 115–125 of FAST), synthetic peptide (peptide)", "peptide": "Ac-GDSYWVFVKRV-NH2", "notes": "C-terminal fragment (residues 115-125) of the engineered reporter FAST; numbers count on: FAST; source: synthetic peptide, bought: Clinisciences (98% purity)"}, "B3": {"name": "CFAST10, synthetic peptide (peptide)", "peptide": "Ac-GDSYWVFVKR-NH2", "notes": "CFAST11 without its last C-terminal residue; numbers count on: FAST; source: synthetic peptide, bought: Clinisciences (98% purity)"}},
  "settings_in_all_cases": "both partners purified",
  "key": {"[1]": {"target": "T1, CFAST11 (fragment 115-125 of FAST)", "T1 construct": "C-terminal fragment 115-125 of the engineered protein FAST; source: synthetic peptide, bought: Clinisciences, 98% purity", "T1 peptide": "Ac-GDSYWVFVKRV-NH2", "experiment": "other fluorescence titration; NFAST titrated onto 100 nM CFASTn in the presence of 10 µM HBR-3,5DOM; pH 7.4 phosphate buffered saline, 25 °C; excitation 520 nm, emission 600 nm; plate reader; one-site-specific binding fit; apparent"}, "CFAST10 [2]": {"target": "T2, CFAST10", "T2 construct": "CFAST11 without its last C-terminal residue; source: synthetic peptide, bought: Clinisciences, 98% purity", "T2 peptide": "Ac-GDSYWVFVKR-NH2", "experiment": "other fluorescence titration; NFAST titrated onto 100 nM CFASTn in the presence of 10 µM HBR-3,5DOM; pH 7.4 phosphate buffered saline, 25 °C; excitation 520 nm, emission 600 nm; plate reader; one-site-specific binding fit; apparent"}, "CFAST9 [3]": {"target": "T3, CFAST9", "T3 construct": "CFAST11 without its last two C-terminal residues; source: synthetic peptide, bought: Clinisciences, 98% purity", "T3 peptide": "Ac-GDSYWVFVK-NH2", "experiment": "other fluorescence titration; NFAST titrated onto 100 nM CFASTn in the presence of 10 µM HBR-3,5DOM; pH 7.4 phosphate buffered saline, 25 °C; excitation 520 nm, emission 600 nm; plate reader; one-site-specific binding fit; apparent"}, "[4]": {"target": "T1, CFAST11 (fragment 115-125 of FAST)", "experiment": "other fluorescence titration; NFAST titrated onto 100 nM CFASTn in the presence of 10 µM HMBR; pH 7.4 phosphate buffered saline, 25 °C; excitation 480 nm, emission 540 nm; plate reader; one-site-specific binding fit; apparent"}, "CFAST8": {"target": "T4, CFAST8", "T4 construct": "CFAST11 without its last three C-terminal residues; source: synthetic peptide, bought: Clinisciences, 98% purity", "T4 peptide": "Ac-GDSYWVFV-NH2", "experiment": "other fluorescence titration; NFAST titrated onto 100 nM CFASTn in the presence of 10 µM HMBR; pH 7.4 phosphate buffered saline, 25 °C; excitation 480 nm, emission 540 nm; plate reader; one-site-specific binding fit; apparent"}, "CFAST10 [5]": {"target": "T2, CFAST10", "experiment": "other fluorescence titration; NFAST titrated onto 100 nM CFASTn in the presence of 10 µM HMBR; pH 7.4 phosphate buffered saline, 25 °C; excitation 480 nm, emission 540 nm; plate reader; one-site-specific binding fit; apparent"}, "CFAST9 [6]": {"target": "T3, CFAST9", "experiment": "other fluorescence titration; NFAST titrated onto 100 nM CFASTn in the presence of 10 µM HMBR; pH 7.4 phosphate buffered saline, 25 °C; excitation 480 nm, emission 540 nm; plate reader; one-site-specific binding fit; apparent"}, "[7]": {"target": "T5, NFAST (fragment 1–114 of FAST)", "T5 construct": "N-terminal fragment (residues 1-114) of the engineered fluorogenic reporter FAST, split between Ser 114 and Gly 115; numbers count on: FAST; Cloned in pET28a with NheI and XhoI; Surmise: the His tag is the N-terminal one of the vector; no cleavage is told; also called recombinantly purified NFAST; source: E. coli Rosetta (DE3) pLysS, purified (Ni-NTA, PD-10 desalting)", "T5 chain": "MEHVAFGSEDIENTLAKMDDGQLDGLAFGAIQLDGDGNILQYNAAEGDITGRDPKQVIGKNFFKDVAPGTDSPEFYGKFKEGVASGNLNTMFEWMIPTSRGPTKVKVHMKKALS", "experiment": "other fluorescence titration; synthetic CFASTn peptides (n = 8–11) and recombinant purified NFAST in the presence of fluorogen (10 µM HMBR; also HBR-3,5DOM); Spark 10M plate reader; one-site-specific binding fit; apparent"}},
  "data": [
    {"binder": "B1", "values": [
      {"measurement": "Kd", "setting": "[1]", "value": "1.4 ± 0.2", "unit": "µM"},
      {"measurement": "Kd", "setting": "CFAST10 [2]", "value": "6.2 ± 0.5", "unit": "µM"},
      {"measurement": "Kd", "setting": "CFAST9 [3]", "value": "25 ± 1", "unit": "µM"},
      {"measurement": "Kd", "setting": "[4]", "value": "0.21 ± 0.05", "unit": "µM"},
      {"measurement": "Kd", "setting": "CFAST8", "value": "21 ± 4", "unit": "µM"},
      {"measurement": "Kd", "setting": "CFAST10 [5]", "value": "0.95 ± 0.08", "unit": "µM"},
      {"measurement": "Kd", "setting": "CFAST9 [6]", "value": "5.7 ± 0.6", "unit": "µM"}
    ]},
    {"binder": "B2", "values": [
      {"measurement": "binding result", "setting": "[7]", "value": "binds"}
    ]},
    {"binder": "B3", "values": [
      {"measurement": "binding result", "setting": "[7]", "value": "binds"}
    ]}
  ]
}
